Columns and labels:
Hfq [1] = target: T1, Hfq (UniProt P0A6X3 1-102); assay: EMSA
Hfq [2] = target: T1, Hfq; assay: EMSA; remark: listed apart in the source

T1 sequence (P0A6X3 whole entry): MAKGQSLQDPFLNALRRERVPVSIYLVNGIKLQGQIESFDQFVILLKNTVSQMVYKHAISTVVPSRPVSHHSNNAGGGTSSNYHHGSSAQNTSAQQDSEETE

B1: MicAstab (structured_RNA)
RNA: GAAAGACGCGCAUUUGUUAUCAUCAUCCCUGGGAAAGCGACCGUUUCCCUGGCCACUCACGAGUGGCCUUUUAAAA
- Kd (Hfq [1]): 1.5 nM

B2: MicAstab + ompA leader (structured_RNA)
RNA 1: B1 RNA
RNA 2: GGGCCAGGGGUGCUCGGCAUAAGCCGAAGAUAUCGGUAGAGUUAAUAUUGAGCAGAUCCCCCGGUGAAGGAUUUAACCGUGUUAUCUCGUUGGAGAUAUUCAUGGCGUAUUUUGGAUGAUAACGAGGCGCAAAAAAUGAAAAAGACAGCUAUCGCGAUUGCAGUGGCA
- binding result (Hfq [2]): binds
